{"source": "patent US20080113421A1", "about": "“Stabilizing proteins against denaturation and inactivation by charged detergents using chemical modifications, including modifications that increase net charge” (President and Fellows of Harvard College, priority 2006, published 2008)", "type_in_all_cases": "physicochemical", "key": {"[1]": {"test": "Refolding after 1 week incubation at intermediate SDS concentrations (aggregation test)", "details": "denatured in 10 mM SDS, incubated 1 week at intermediate SDS, diluted into 0.1 mM SDS", "protocol": "Aggregation was tested by renaturing the proteins from a denatured state at 10 mM SDS to 0.1 mM SDS, but through an incubation step at intermediate concentrations of SDS, instead of renaturing by rapid dilution from 10 mM SDS to 0.1 mM SDS directly (i.e., 10 mM SDS→2.5 mM SDS→0.1 mM SDS instead of 10 mM SDS→0.1 mM SDS). For incubation, concentrations of SDS were chosen in which aggregation was believed to occur on a similar or shorter time scale as refolding. The protein-SDS complex was diluted from 10 mM SDS to 2.5-0.7 mM SDS, the proteins were incubated for 1 week at those concentrations, and the samples further diluted to 0.1 mM SDS to initiate fast refolding.\nThe fluorescence signal from DNSA was normalized to that of refolded protein by rapid dilution from 10 to 0.1 mM SDS."}, "[2]": {"test": "Screening of additives in denaturation/renaturation with SDS", "protocol": "Additives in de-/renaturation included the following. The effects of the following additives on denaturation and renaturation of BCA and BCA-Ac18 were screened: poly(ethelyneglycol) (PEG, MW=2000), 0.1 mM, 1 mM; poly(vinylpyrrolidone), MW=10 000, 1%, 10% w/v; 3-(3-cholamidopropyl)dimethylammoniopropane sulfonate (CHAPS), 1 mM; octanol, 1 mM; tetrabutylammonium thiocyanate, 100 mM; sodium thiocyanate, 100 mM, 1 M; sodium sulfate, 10 mM; betaine, 1 M; dimethyl sulfoxide (DMSO), 1%, 10% v/v; N-methylpyrrolidone, 1%, 10% v/v. The screening was performed in a 96-well plate format, using a SpectraMax Gemini XS spectrometer (Molecular Devices), with a protein concentration of 100 nM, a DNSA concentration of 10 micromolar (present in the denaturation/renaturation buffers), and variable concentrations of SDS.\nIn some experiments, various additives were used to prevent aggregation of BCA and BCA-Ac18. These additives were commonly used to prevent aggregation of carbonic anhydrases and other proteins. The additives included polymers (PEG), other surfactants (CHAPS), “salting-in” Hofmeister salts (tetrabutylammonium thiocyanate and sodium thiocyanate), osmolytes (betaine), and organic solvents (dimethyl sulfoxide and N-methylpyrrolidone). […] For example, in 10% DMSO, it was observed that refolding of BCA up to 1.2 mM SDS (vs. 0.7 mM SDS without a cosolvent), but unfolding up to 2.5 mM SDS was not observed."}, "[3]": {"test": "Denaturation of BCA charge ladders in 3 mM SDS (dialysis cassette) followed by capillary electrophoresis, with transition-state model fit", "protocol": "Denaturation experiments were performed as follows. A charge ladder of BCA (BCA-Acn or BCA-Hexn, 1 mL of 100 micromolar total protein in Tris-Gly buffer) was placed in a dialysis cassette (MW cutoff of 10 kDa). The dialysis cassette was placed in a 1 L bath of 3 mM SDS in Tris-Gly buffer at room temperature. The buffer was changed every 24 h. At regular intervals of time (approximately every half-hour), 100 microliters of the protein solution was removed from the dialysis cassette; ˜7 microliters of that aliquot was diluted 10-fold and the absorbance of the diluted sample at 280 nm (ε280,BcA=57,000 M^−1 cm^−1, the absorption cross section can be assumed to be is unchanged by acylation) was measured to determine the total protein concentration. The aliquot was diluted because the absorbance of the 100 micromolar solution was too high to be read accurately by the ultraviolet spectrometer. This diluted aliquot was discarded. The remainder of the solution was then run on CE. The protein solution, except for the portion diluted for ultraviolet measurement, was returned to the dialysis cassette; the aliquot was outside of the dialysis cassette for ˜5 min.\nCapillary electrophoresis experiments were carried out in a Beckman (Fullerton, Calif.) PACE-MDQ system, using a capillary of inner diameter of 50 micrometers of total length of 110.2 cm, 100 cm to the detector. Tris-Gly in D2O was used as the running buffer, and the applied voltage was 30 kV. D2O was used in place of H2O for the electrophoresis buffer because the viscosity of D2O is higher than that of H2O and the higher viscosity minimizes diffusion. Samples were injected using pressure (20 psi) for 30 s. Each sample contained 0.65 mM dimethylformamide as an electrically neutral marker for electroosmotic flow.\nThe CMC of SDS in the Tris-Gly buffer used in this example was 4.3 mM. 3 mM SDS was chosen for these experiments because this concentration of SDS denatured BCA in an interval of time that was convenient for experimental work using CE. In addition, this concentration of SDS was close to the concentration often used in SDS-PAGE (0.1% or 3.5 mM). 1 mL of a solution of ˜100 micromolar of a charge ladder of BCA, dissolved in Tris-Gly buffer, was placed into a dialysis cassette (molecular weight cutoff of 10 kDa) and the cassette placed in 1 L of Tris-Gly buffer containing 3 mM SDS. The bath was kept at room temperature (˜22° C.) for the duration of the experiment.\nAt regular intervals of time (approximately every half hour), 100-microliter aliquots of the solutions containing the charge ladder of BCA were removed from the cassette in a bath of 3 mM SDS in Tris-Gly buffer, the total protein concentration in the aliquot was measured using absorbance at 280 nm, and a portion (˜10 nL) of the aliquot injected onto the CE. The unused portions of the aliquots were then returned to the cassette.\nResidence time in the detection volume was determined as follows. […] If two proteins with the same absorptivity were present in a sample in equal concentrations, the protein of lower velocity would have a larger measured peak area than the protein of higher velocity. To correct for this experimental bias, the area of each peak was multiplied-by the velocity of the protein (Acorr=Ameasured×LD/tD), where LD is the length of the capillary from the end (where injection occurs) to the detector (100 cm in all of these experiments) and tD is the time it takes for the rung to reach the detector.\nInitial differences in concentrations of each rung were as follows. The areas of each of the rungs in the charge ladder were not all equal before denaturation. To measure the fraction of each rung that has denatured at each time, the velocity-corrected area of each rung in the sample was divided by the velocity-corrected area of that rung in the charge ladder run in the absence of SDS.\nA comparison of the rates of denaturation follows. […]"}}}
{"substance": "bovine carbonic anhydrase II [BCA]", "values": [{"measurement": "t1/2 for refolding", "setting": "[1]", "value": "10.8 ± 0.6", "unit": "min"}, {"measurement": "highest SDS concentration at which refolding was observed", "setting": "[2]; 1 mM CHAPS", "value": "up to 1.8 mM"}, {"measurement": "SDS concentration needed for unfolding", "setting": "[2]; 1 mM CHAPS, unfolding did not occur below this concentration", "value": "≥ 2.5", "unit": "mM"}, {"measurement": "highest SDS concentration at which refolding was observed", "setting": "[2]; 10% DMSO", "value": "up to 1.2 mM"}, {"measurement": "SDS concentration needed for unfolding", "setting": "[2]; 10% DMSO, unfolding up to this concentration not observed", "value": "> 2.5", "unit": "mM"}, {"measurement": "highest SDS concentration at which refolding was observed", "setting": "[2]; without a cosolvent", "value": "≤ 0.7", "unit": "mM"}, {"measurement": "ΔG‡ of denaturation (a coefficient)", "setting": "[3]; 3 mM SDS, room temperature, assumes νκTST=10^6 s^−1", "value": "14 ± 1", "unit": "kcal/mol"}, {"measurement": "radius of the transition state RTS", "setting": "[3]; model, assuming a radius of BCA of 2 nm", "value": 2.1, "unit": "nm"}]}
